We go through one substance from patent publication US20210063414A1, “METHODS FOR PREVENTING AND/OR TREATING BONE LOSS CONDITIONS BY MODULATING IRISIN” (Dana-Farber Cancer Institute, Inc., priority 2018, published 2021).

Experiment in all cases: Crosslinking/co-immunoprecipitation/mass spectrometry (TMT quantitative proteomics) to identify irisin receptors
What all share (type): binding

In assay [1] the target is T1, MLO-Y4 cell surface proteins (Mus musculus, UniProt Q66GT5).
T1 construct: endogenous in cells; host or cells: MLO-Y4
T1 sequence (Q66GT5 32-193): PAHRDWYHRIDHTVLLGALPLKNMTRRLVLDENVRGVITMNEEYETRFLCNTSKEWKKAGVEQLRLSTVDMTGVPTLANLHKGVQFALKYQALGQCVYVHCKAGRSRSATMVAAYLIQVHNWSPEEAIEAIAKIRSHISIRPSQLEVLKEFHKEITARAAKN
Conditions: co-precipitated protein Ptpmt1 (PTPM1_MOUSE). The procedure, abridged: (§1)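 Mouse MLO-Y4 cells were switched to serum-free FreeStyle medium for 4 h, chilled, then exposed to 10 nM His-tagged irisin (or adipsin as control) for 20 min. Cells were crosslinked with 1.5 mM DTSSP (30 min, ice), and bound proteins were pulled down on Ni-NTA and eluted with 250 mM imidazole. Eluates were separated by SDS-PAGE, trypsin-digested in gel, TMT 6-plex labelled and quantified by MS3-based LC-MS/MS on an Orbitrap Fusion Lumos.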

The target of assay [2] is T2, MLO-Y4 cell surface proteins (Mus musculus, UniProt Q8BJQ9).
T2 construct: endogenous in cells; host or cells: MLO-Y4
T2 sequence (Q8BJQ9 1-530): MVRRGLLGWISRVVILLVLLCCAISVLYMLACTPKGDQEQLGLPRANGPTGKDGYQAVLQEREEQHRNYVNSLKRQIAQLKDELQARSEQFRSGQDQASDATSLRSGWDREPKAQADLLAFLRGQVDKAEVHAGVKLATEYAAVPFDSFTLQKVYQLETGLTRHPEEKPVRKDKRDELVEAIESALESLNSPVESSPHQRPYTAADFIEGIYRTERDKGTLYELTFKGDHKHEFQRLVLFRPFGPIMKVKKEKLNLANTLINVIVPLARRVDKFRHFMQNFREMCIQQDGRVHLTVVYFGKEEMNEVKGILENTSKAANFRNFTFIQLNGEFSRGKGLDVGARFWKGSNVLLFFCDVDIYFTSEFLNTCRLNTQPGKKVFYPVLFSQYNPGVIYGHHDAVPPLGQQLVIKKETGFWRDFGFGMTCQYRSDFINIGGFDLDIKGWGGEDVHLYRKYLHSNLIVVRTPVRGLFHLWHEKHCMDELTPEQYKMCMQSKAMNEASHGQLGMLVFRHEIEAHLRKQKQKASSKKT
The following applies: co-precipitated protein Csgalnact1 (CGAT1_MOUSE). In outline:
as §1

In assay [3] the target is T3, MLO-Y4 cell surface proteins (Mus musculus, UniProt Q8VCI5).
T3 construct: endogenous in cells; host or cells: MLO-Y4
T3 sequence (Q8VCI5 1-299): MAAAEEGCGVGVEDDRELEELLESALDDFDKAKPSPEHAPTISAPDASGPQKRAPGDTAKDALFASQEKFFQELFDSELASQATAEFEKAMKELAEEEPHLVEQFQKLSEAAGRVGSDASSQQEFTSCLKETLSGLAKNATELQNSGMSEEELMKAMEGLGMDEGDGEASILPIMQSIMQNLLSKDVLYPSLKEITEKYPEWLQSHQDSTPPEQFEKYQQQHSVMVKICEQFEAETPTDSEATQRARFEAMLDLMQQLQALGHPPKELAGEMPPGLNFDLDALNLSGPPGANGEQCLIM
The following applies: co-precipitated protein Pex19 (PEX19_MOUSE). In outline: as §1

adipsin: the TMT signal-to-noise ratio in assay [1] stood at 92.3664; in assay [2], 2426.62; in assay [3] it was 60.4801.
